Data taken from the supplement of paper PMC9732359.
± gives the uncertainty stated by the source.

Assay: protein stability index of a GFP-peptide fusion (yeast GPS) (PSI 1-4); higher = more stable; sorted into four equal gates, so the index is relative within each strain
Procedure, shortened: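 Tiled yeast protein peptides of 17 residues were each joined downstream of GFP, on plasmids that also express Cherry. The pooled library was maintained in yeast, and mid-log cultures in leucine-free medium were sorted into four equal gates on the GFP/Cherry ratio. Plasmids from every gate were amplified by PCR and sequenced on Illumina, with barcodes linking reads to strains. The protein stability index of a peptide is its gate-number-weighted read frequency summed over the gates.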

Sequence	protein stability index (doa10∆)	protein stability index (pdr5∆)	protein stability index (san1∆)	protein stability index (ubr1∆)
ILERAYKKLDIDGKVIQ [SNF2]	3.16 ± 0.083	3.34 ± 0.076	3.05 ± 0.042	3 ± 0.058
GDTIELAIIGDENPDLL [PRE8]	3.56 ± 0.22	3.11 ± 0.17	–	–
ITMPATNGKPDMAILER [ARP7]	3.17 ± 0.059	3.08 ± 0.059	3.06 ± 0.041	3.18 ± 0.042
AQQLVGVYKRDNRTKST [SMC4]	3.11 ± 0.2	3.04 ± 0.2	–	–
SPSYSPTSPAYSPTSPS [RPO21]	2.93 ± 0.05	2.85 ± 0.052	2.81 ± 0.048	3.08 ± 0.032
NDFFPGEVVYLRKQKDS [ITC1]	2.03 ± 0.062	1.39 ± 0.059	1.35 ± 0.12	1.48 ± 0.081
RLILLLNHRNKNQHRAA [RMP1]	1.44 ± 0.09	1.51 ± 0.079	1.34 ± 0.12	2.13 ± 0.089
SAKAELEKLVDHHPEGL [PRE10]	2.84 ± 0.065	2.91 ± 0.055	2.55 ± 0.068	2.75 ± 0.048
TFRRRNPYNTRSNKIKV [RPL34A]	1.43 ± 0.04	1.81 ± 0.045	1.67 ± 0.066	1.9 ± 0.04
LKNEGIDLDHKRFLILQ [SMC4]	2.21 ± 0.22	2.35 ± 0.13	2.15 ± 0.12	2.84 ± 0.068
SDNVSFEIQGVPPMKLA [YMR129W/POM152]	2.8 ± 0.11	3.18 ± 0.083	3.05 ± 0.062	2.86 ± 0.088
EARLFNIWGTVRTNRFD [ECM29]	2.61 ± 0.19	2.14 ± 0.15	–	2.32 ± 0.28
KMPGGFTITVARKYLQT [FAS2]	1.24 ± 0.039	1.47 ± 0.065	1.21 ± 0.084	1.27 ± 0.052
KETVEIGIVDYEAGASH [FAS1]	–	2.92 ± 0.19	–	3.06 ± 0.14
SSLASQDVDFYKNLDRG [RRP6]	1.31 ± 0.084	1.37 ± 0.067	–	1.64 ± 0.088
NHASMDVYNRELDEHTT [BRR2]	3.27 ± 0.068	3.16 ± 0.063	3.26 ± 0.047	3.26 ± 0.056
YLKESKRKYDEITHPPS [SWI3]	2.59 ± 0.17	3.39 ± 0.15	3.02 ± 0.1	3.05 ± 0.11
AGVLNGTLEYGTCFGGS [RET1]	2.97 ± 0.051	2.91 ± 0.057	2.99 ± 0.051	3.08 ± 0.043
AYEEEEENEDNDGNNRT [NUT1]	3.25 ± 0.12	3.37 ± 0.11	3.47 ± 0.15	3.46 ± 0.068
FVAATTNAGYTIELAGG [FAS1]	2.82 ± 0.063	2.97 ± 0.059	2.9 ± 0.11	2.68 ± 0.062
KGEEAKLDSKKTVPFQV [SSN3]	3.27 ± 0.087	3.37 ± 0.055	3.2 ± 0.097	3.23 ± 0.066
NGDKKVDIYSLPLISTD [YMR129W/POM152]	2.88 ± 0.076	2.76 ± 0.056	2.88 ± 0.034	3.03 ± 0.051
PCLSRSCTKCPQIVVPD [DIS3]	2.42 ± 0.034	2.56 ± 0.031	2.63 ± 0.033	2.57 ± 0.03
KQGFVIYRVRVRRGNRK [RPL15A]	1.17 ± 0.13	1.96 ± 0.11	1.29 ± 0.26	2.26 ± 0.089
DYIEFNITFSEELVSLA [YJL039C/NUP192]	–	–	1.54 ± 0.27	1.61 ± 0.28
WRKWNVKVNHNEKRYAT [RPL4A]	2.36 ± 0.24	2.94 ± 0.16	1.59 ± 0.13	1.94 ± 0.23
KTVCAIALILAIQMVDP [SMC3]	1.11 ± 0.092	1.1 ± 0.072	2.08 ± 0.23	1.87 ± 0.081

Sequence	protein stability index (doa10∆)	protein stability index (pdr5∆)	protein stability index (san1∆)	protein stability index (ubr1∆)
LNDLVESSFIEIDDTEA [BRR2]	2.9 ± 0.037	2 ± 0.043	2.13 ± 0.069	2.25 ± 0.029
VVDRESDIPKTTVQVAE [PRE4]	2.6 ± 0.11	2.99 ± 0.1	2.8 ± 0.13	3.06 ± 0.076
KWSKKSMKDRAQHAVIL [RPS25A]	2.37 ± 0.058	2.42 ± 0.095	2.73 ± 0.091	2.63 ± 0.054
YVMERPKNVPTSKWLNS [YDL116W/NUP84]	2.61 ± 0.057	2.75 ± 0.055	2.63 ± 0.072	2.82 ± 0.043
EAEVTAEVNGGDDEATE [BRR2]	–	3.24 ± 0.12	–	2.72 ± 0.21
NLRRHSDIVLDKKVTLI [SIN4]	2.47 ± 0.05	3.05 ± 0.042	2.87 ± 0.034	2.68 ± 0.038
LSLMLESPNYCNALIHI [SRB4]	1.52 ± 0.044	1.78 ± 0.035	1.72 ± 0.075	1.75 ± 0.035
TPGSVSLSAYNLTDEGY [PRP8]	2.23 ± 0.15	2.5 ± 0.077	2.3 ± 0.094	1.96 ± 0.21
SGLPTCDYYNTFLLNNK [RPN2]	2.94 ± 0.069	2.96 ± 0.071	2.68 ± 0.062	2.51 ± 0.069
DFVRNELNDIDTKIDQV [SMC3]	3.19 ± 0.15	3.31 ± 0.11	3.12 ± 0.14	3.29 ± 0.13
SFLKVDPDLGLDLMFDE [YJL039C/NUP192]	3.3 ± 0.083	3.3 ± 0.09	3.04 ± 0.087	3.06 ± 0.091
KRFNIGADPNYRTYSER [RPR2]	3.08 ± 0.15	3.4 ± 0.14	2.89 ± 0.28	3.35 ± 0.11
SHNVDELLEHIETIGHL [RPN5]	2.51 ± 0.084	2.24 ± 0.1	2.14 ± 0.11	1.53 ± 0.082
NLLQISAAELERLDKDK [SNF5]	2.5 ± 0.12	2.89 ± 0.13	2.91 ± 0.18	–
FLESSKEIDPSQTTQLA [FAS2]	2.89 ± 0.11	3 ± 0.085	2.6 ± 0.084	2.42 ± 0.14
KLISAFDDLEVEELPTF [RRP42]	2.57 ± 0.06	2.84 ± 0.05	2.5 ± 0.066	2.85 ± 0.036
TTDKLRSMVRKWQTLIE [RPS1A]	2.72 ± 0.17	2.46 ± 0.15	–	–
DDDINWQELARSTDEFN [RPT5]	3.18 ± 0.064	3.21 ± 0.065	3.11 ± 0.048	3.2 ± 0.043
QAISYLHKLQRMRLRAL [GRR1]	1.77 ± 0.057	1.74 ± 0.053	1.8 ± 0.055	1.49 ± 0.028
QGEVGAVFIVPKILIRE [SWP82]	2.03 ± 0.14	2.36 ± 0.21	1.69 ± 0.15	2.13 ± 0.2
FPMKQGVLLPTRIKLLL [RPS6A]	1.26 ± 0.053	1.39 ± 0.053	1.17 ± 0.094	1.29 ± 0.038
ETIKSLEDPYKYHYKEE [CSN9]	3.17 ± 0.09	3.13 ± 0.082	3.09 ± 0.07	3.14 ± 0.06
QMMARMAQTATQQQPGA [SRP54]	2.34 ± 0.059	2.36 ± 0.067	2.35 ± 0.067	2.27 ± 0.044
PKNYSLHGLRSFYDAIF [YJL039C/NUP192]	2.53 ± 0.042	2.61 ± 0.041	2.37 ± 0.043	2.4 ± 0.041
GVSISVSFNSKQNEQLH [SMC3]	1.87 ± 0.064	2.01 ± 0.065	2.7 ± 0.13	2.35 ± 0.11
MSIDEEDKDSESFSEVC [YCG1]	2.71 ± 0.15	2.34 ± 0.09	2.48 ± 0.15	2.43 ± 0.067
ASTVAKTAPIQESFVPN [YOR098C/NUP1]	2.97 ± 0.16	2.83 ± 0.11	2.94 ± 0.3	3.21 ± 0.061

Sequence	protein stability index (doa10∆)	protein stability index (pdr5∆)	protein stability index (san1∆)	protein stability index (ubr1∆)
SVDKKVDSGEERNEQER [SWI3]	3.53 ± 0.092	3.35 ± 0.14	3.25 ± 0.11	3.54 ± 0.077
FVRGDSKIFRFQNSKSA [RPL24A]	2.31 ± 0.053	2.63 ± 0.057	2.31 ± 0.059	2.43 ± 0.051
SQASSDLGETFRGIIRS [CSL4]	3.17 ± 0.14	2.96 ± 0.081	3.3 ± 0.096	3.24 ± 0.073
LIPFIVKQVLLSVEIGV [NUT1]	1.57 ± 0.031	1.6 ± 0.031	1.56 ± 0.059	1.74 ± 0.036
LFLIIQCYKIYDLVILK [YMR129W/POM152]	1.29 ± 0.063	1.2 ± 0.045	1.16 ± 0.085	1.16 ± 0.044
MAQRTLKNKYESYDAAL [FAS2]	3.147 ± 0.019	3.059 ± 0.017	2.999 ± 0.015	3.064 ± 0.012
TFTIKEFVSYYYAHSIP [SNU114]	1.88 ± 0.039	1.77 ± 0.045	2.25 ± 0.055	1.88 ± 0.052
HAYNITFNNQDKGLLPY [RPO31]	2.64 ± 0.09	3.09 ± 0.2	1.76 ± 0.098	2.91 ± 0.057
VLKFLTDLEKKHLWDQK [RPC17]	3.14 ± 0.24	3.41 ± 0.16	3.18 ± 0.14	3.47 ± 0.14
FFGPTYYQRLRHMVDDK [RPB2]	1.24 ± 0.046	1.26 ± 0.046	1.72 ± 0.1	1.36 ± 0.053
YQCAMGKQAIGAIAYNQ [RET1]	2.55 ± 0.053	2.76 ± 0.06	2.78 ± 0.047	2.65 ± 0.049
RTLNIQPEVAVKAAINF [YIL149C/MLP2]	2.19 ± 0.054	2.15 ± 0.045	1.84 ± 0.071	2.21 ± 0.046
LKRNSWPKTRGVAMNPV [RPL2A]	2.95 ± 0.18	3.32 ± 0.2	3.2 ± 0.16	2.83 ± 0.085
VKLPRAFIDERASDLRM [RRP43]	–	1.68 ± 0.26	–	1.69 ± 0.16
LNDVVSFLFSAIPLQQV [SWI1]	1.83 ± 0.044	2.08 ± 0.039	1.94 ± 0.057	1.75 ± 0.026
QQQNASSKLYQMQQQQQ [GAL11]	1.76 ± 0.091	1.66 ± 0.073	1.5 ± 0.13	1.78 ± 0.064
LDKLDEILYYQIKTLPE [AAR2]	2.89 ± 0.13	2.97 ± 0.14	3 ± 0.13	3.25 ± 0.15
KEKIEKLSKSATESIKN [SMC1]	3.28 ± 0.12	2.99 ± 0.21	2.97 ± 0.079	3.07 ± 0.072
AFDIELSEFGIKKMLHL [YCS4]	3.11 ± 0.067	3.09 ± 0.088	2.67 ± 0.1	3.12 ± 0.063
VEDVSQNAADLQQICRV [RPL9A]	2.96 ± 0.096	3.42 ± 0.047	2.76 ± 0.093	3.03 ± 0.051
LYAERVQDRGLSAVAQA [RPS3]	3.09 ± 0.069	3.28 ± 0.065	3.3 ± 0.09	3.22 ± 0.044
TIEQSPRMIELMEFLCV [ECM29]	–	–	3.11 ± 0.14	3.25 ± 0.13
LELLNQLDGFSSDDRVK [RPT5]	3.07 ± 0.064	3.15 ± 0.056	2.96 ± 0.051	3.03 ± 0.046
QSKLKDVVEYLDKVINK [RPN8]	2.73 ± 0.094	2.32 ± 0.055	2.63 ± 0.073	2.55 ± 0.046
KKRFDEFMAGFNIISMT [SMC4]	2.64 ± 0.097	2.52 ± 0.11	2.87 ± 0.096	2.14 ± 0.072
